Measured values taken from patent publication US20100093090A1, “METHOD AND KIT FOR EFFICIENT REPROGRAMMING OF SOMATIC CELLS” (priority 2008, published 2010).

Legend:
[1] = test system: human adult foreskin fibroblast (hAFF) cells; experiment: Human iPS cell generation from fibroblasts by lentiviral transduction of reprogramming factors (colony counting, AP staining, GFP silencing); assay type: cell-based
Method: 5×10^4 cells were plated onto a 10-cm dish. Shown are numbers of total colonies and AP-highly positive colonies (in parenthesis) counted on day 18 post-transduction. “4” indicates the reported four reprogramming factors OCT4 (O), SOX2 (S), KLF4 (K) and c-MYC (M). […] (C-E): Total colony numbers (left panels), highly AP-positive colony numbers (middle panels) and iPS colony numbers (right panels). The colony number shown are those induced from 10^5 cells plated on the feeder cells by different combinations of factors. The results of three independent experiments are shown with different colors. […] Numbers were counted on day 25 post-transduction; (D) The six factors (4PU) combination minus the reported four reprogramming factors, respectively. (Da and Db) Numbers were counted on day 25 post-transduction. (Dc) Numbers were counted on day 35 post-transduction. […] Numbers were counted on day 35 post-transduction.
Lentiviral vector containing OCT4, SOX2, c-MYC, KLF4, UTF1, p53 siRNA and control p53 siRNA respectively (15 μg) together with pMDLg/pRRE, RSV/Rev and VSV-G (FIG. 13 A, B, C) (5 μg for each), were respectively transfected into 293T cells with the Ca3(PO4)2-method in 10-cm dishes and incubated overnight. 12 hours later, the medium was changed and virus was collected after subsequent 36 hours cultivation. Viral supernatant was collected and filtered through 0.45 μm filters (Millipore) and then placed onto target fibroblasts supplemented with 10 ng/μl polybrene (Sigma-Aldrich). Typically, 1×10^5 fibroblasts in a well of 6-well plate were infected with 250 μl viral supernatant of each gene. The viral supernatant was changed with fibroblast culture medium after 12 hours. […] 5-6 days later, the infected cells were collected, counted, and plated onto MEF feeders (typically 2×10^4 to 1×10^5 cells for a 10-cm dish). […] The efficiency to generate iPS cells was calculated according to Takahashi's method, by which the number of cell colonies was counted and divided by the number of cells plated onto feeders (Takahashi et. al., 2007) (FIGS. 1C, 1D, 1E, 5C, and 5D). […]

[2] = test system: p53; experiment: Knockdown of p53 expression by p53 shRNA in hAFF; assay type: cell-based, human; conditions: nonsense siRNA as control
[3] = test system: iPS cell generation efficiency; experiment: iPS cell generation in presence of HDAC inhibitors (VPA, SBHA, Butyrate); assay type: cell-based
Method: FIG. 10. The colony number shown are those induced from 10^4 cells plated on the feeder cells by different combinations of factors. IPS colony numbers were counted on day 25 post-transduction. (O: OCT4; S:SOX2; K: KLF4; G: GFP; P: P53siRNA; U: UTF1). (A) In presence of VPA, iPS cell generation efficiency could be enhanced by UTF1 or P53 siRNA, or their combination. […] VS: VPA+SBHA; VB: VPA+Butyrate. The working concentrations of VPA, SBHA and Butyrate in this study were 0.5 mM, 2 μM, 0.1 mM, respectively.
Recently, it is reported that iPS cells could be generated when contacting with HDAC inhibitors (and/or other compounds) by a much higher efficiency. We further tested whether UTF1 and p53 siRNA would still work in the context of HDAC inhibitors.

[4] = with the four factors, day 25 post-transduction

B1: p53 siRNA: lentiviral pLL3.7-encoded shRNA against p53; DNA sequence encoding it GACTCCAGTGGTAATCTACT (SEQ ID NO: 6 and 7) (nucleic acid)
DNA 1: TGACTCCAGTGGTAATCTACTTCAAGAGAGTAGATTACCACTGGAGTCTTTTTTC
DNA 2: TCGAGAAAAAAGACTCCAGTGGTAATCTACTCTCTTGAAGTAGATTACCACTGGAGTCA
iPS cells obtained out of every 100,000 human adult fibroblast cells after infection ([1]; together with Oct4, Sox2 and Klf4, without c-Myc, about 1 month post-infection, on average): about 30
highly AP-positive colony numbers and iPS colony numbers [1, 4]: did not further exert its effect
total numbers of cell colonies [1, 4]: dramatically enhanced
knockdown of p53 expression [2]: efficient
reprogramming efficiency when VPA was added ([3]; VPA 0.5 mM, 10^4 cells plated, day 25 post-transduction): enhance the reprogramming efficiency significantly
reprogramming efficiency in presence of two HDAC inhibitor combination ([3]; VPA+SBHA or VPA+Butyrate, 0.5 mM, 2 μM, 0.1 mM, day 25): enhances reprogramming efficiency
